Patent publication US20200040103A1
Substitutions are numbered along the chain they refer to.

B1: hu9H5.L4H14 (antibody, V domains shown)
VH: EVQLVESGGGLIQPGGSLRLSCAASGFSLSSYGVSWVRQAPGKGLEYVGFIGSGGFAYYASWAKSRFTISRDNSKNTLYLQMNSLRAEDTAVYYCARDDVGGGKSLDIWGQGTLVTVSS
VL: DIQMTQSPSSLSASVGDRVTITCQASQSISSYLSWYQQKPGKAPKLLIYSASTLASGVPSRFSGSGSGTDFTLTISSLQPEDFATYYCHQDYTSSNVDNTFGGGTKVEIK
B2: 8F5 (antibody, V domains shown)
VH: QSVKESEGGLFKPTDTLTLTCTVSGFSLSSYPISWVRQAPGNGLEWIGYITSEYGVAYYATWAESRSTITRNTNLNTVTLKMTSLTAADTATYFCVRENPTYGYAYDAWGPGTLVTVSS
VL: AYDLTQTPASVEAAVGGTVTINCQASESIGNELSWYQQKSGQPPKLLIYQASTLASGVPSRFKGSGSGTDFTLTISDLECADAATYYCAQGFSSSGVENVFGGGTEVVVK
B3: 10C5 (antibody, V domains shown)
VH: QSLEESGGGLVKPTDTLTLTCTVSGFSLSSYGVTWVRQAPGRGLEWIGYITSNYGVSYYASWAKSRSTITRNTNLNTVTLKMTSLTAADTATYFCARENPDYGYAYDAWGPGTLVTVSV
VL: B2 VL with L4M, V11L, G30S, S40P, K45D, Q50Y, D70E, S93G
B4: hu3-3F5.L5H19 (antibody, V domains shown)
VH: EVQLLESGGGLVQPGGSLRLSCAVSGFSLNDYGVSWVRQAPGKGLEWVGAIGSSGVAWYANFAKGRFTISRDNSKNTLYLQMNSLRAEDTAVYYCARDRDYGYRADDATSGMDLWGRGTLVTVSS
VL: AIRMTQSPSSFSASTGDRVTITCQASESIGNALAWYQQKPGKAPKLLIYDASDLASGVPSRFSGSGSGTDFTLTISSLQPEDFATYYCQQGDSHNNVDNIFGGGTKVEIK
B5: hu3-3F5.L5H25 (antibody, human IgG1, V domains shown)
VH: B4 VH with V24A, N73T, L78V
VL: B4 VL
B6: hu10C5.L5H28 (antibody, V domains shown)
VH: EVQLVESGGGLVQPGGSLRLSCAASGFSLSSYGVTWVRQAPGKGLEWIGYITSNYGVSYYASWAKSRSTISRDTSKNTVYLQMGSLRAEDMAVYYCARENPDYGYAYDAWGQGTTVTVSS
VL: AIRMTQSPSSFSASTGDRVTITCQASESISNELSWYQQKPGKAPKLLIYYASTLASGVPSRFSGSGSGTDFTLTISSLQPEDFATYYCAQGFGSSGVENVFGGGTKVEIK
B7: 9H3 (antibody, V domains shown)
VH: QSVKESEGGLFKPTDTLTLTCTVSGFSLSGYGVSWVRQAPGKGLEYIGFIGSGGSAYYASWAKSRSTITRNTNLNTVTLKMTRLTAADTATYFCARDNVGGDMSLDIWGPGTLVTVSS
VL: DIVMTQTPASVSEPVGGTVTIKCQASQNINNYLSWYQQKPGQPPKQLIYAASTLASGVPSRFKGSGSGTQFTLTISDLECADAATYYCHQDYTSNNVDNTFGGGTEVVVK
B8: 9B6 (antibody, V domains shown)
VH: B7 VH with T16N, G30N, S34T, K42N, R83S, N98D, D102G, M103K
VL: NIVMTQTPASVEVAVGGTVVIKCQASQNIGDYLSWYQQKPGQRPKLLIYSASTLASGVPSRFKGSGSGTQFTLTISDLECADAATYYCHQDYTSNDVENTFGGGTEVVVK
B9: 2B11 (antibody, V domains shown)
VH: QSVKESEGGLFKPTDTLTLTCTVSGFSLINYGVSWVRQAPGKGLEWIGYIGSAGSTYYATWAKSRATITRNTNLNTVTLKMTSLTAADTATYFCARAAYSAGSADAEDIWGPGTLVTVSS
VL: AYYMTQTPASVEAAVGGTVTIKCQASQSISNYVAWYQQKPGQPPKLLIYRASTLASGVSSRFSGSGSGTEFTLTISDLECADAATYYCHQGYSSSNVDNIFGGGTEVVVK
B10: 2-3F4 (antibody, V domains shown)
VH: QSVEESRGGLIKPTDTLTLTCTASGFSLSNYGVSWVRQAPGNGLEYIGFIGYGGSTYYASWAKSRSTITRNTNLNTVTLQMTSLTAADTATYFCARLCGVDCADALDSWGPGTLVTVSS
VL: AYYMTQTPASVEVAVGGTVTIKCQASEDIGSYCSWYQQKPGQPPKLLIYDASDLASGVPSRFKGSGSGTDFTLTISGVQCDDAATYYCQQDYTGNNVDNTFGGGSEVVVK
B11: 8G10 (antibody, V domains shown)
VH: QSLEESGGDLVKPEGSLTLTCTASGFSFSTSYWICWVRQAPGKGLEWIACVYGLDVNIYYASWTEGRFTISKTSSTTVTLQVTSLTAADTATYFCARGGGSADFGFDLWGPGTLVTVSS
VL: DVVMTQTPASVSEPVGGTVTIKCQASENIYSLLAWYQQKPGQPPKVLIYDASDLASGVPSRFKGSGSGTQFTLTISDLECADAATYYCQATAYGSSGNAFGGGTEVVVK

How the values were obtained:
[1] = target: recombinant human KLK5 (human) (UniProt Q9Y337); test: SPR BIAcore T200, antibody captured by anti-human Fc, human KLK5 as analyte, 37 C
[2] = target: recombinant human KLK5 (human) (UniProt Q9Y337); test: pro-KLK1 coupled assay, 0.5 nM KLK5, 31.25 nM pro-KLK1, PFR-AMC
[3] = target: recombinant human KLK5 (human) (UniProt Q9Y337); test: pro-KLK7 coupled assay, 5 nM KLK5
[4] = target: recombinant human KLK5 (human) (UniProt Q9Y337); test: KLK5 direct activity assay, 5 nM KLK5, Boc-VPR-AMC
[5] = target: recombinant human KLK5 (human) (UniProt Q9Y337); test: pro-KLK7 LC/MS assay, 5 nM KLK5
[6] = target: recombinant human KLK5 (human) (UniProt Q9Y337); test: pro-KLK7 LC/MS assay, 5 nM KLK5, 15 nM pro-KLK7, nM
[7] = target: recombinant human KLK5 (human) (UniProt Q9Y337); test: pro-KLK1 LC/MS assay, 0.5 nM KLK5
[8] = target: recombinant human KLK5 (human) (UniProt Q9Y337); test: pro-KLK1 LC/MS assay, 0.5 nM KLK5, 300 nM pro-KLK1; box column 3 of 3; no unit printed, nM per text
[9] = target: recombinant human KLK5 (human) (UniProt Q9Y337); test: array SPR imaging (IBIS MX96), antibody amine-coupled, human KLK5 injected 0-300 nM, 25 C
[10] = target: recombinant human KLK5 (human) (UniProt Q9Y337); test: pro-KLK1 LC/MS assay, 0.5 nM KLK5, 300 nM pro-KLK1; box column 1 of 3; no unit printed, nM per text
[11] = target: recombinant human KLK5 (human) (UniProt Q9Y337); test: pro-KLK1 LC/MS assay, 0.5 nM KLK5, 300 nM pro-KLK1; box column 2 of 3; no unit printed, nM per text
[12] = target: recombinant human KLK5 (human) (UniProt Q9Y337); test: Kiapp, KLK5 0.5-0.0625 nM, Z-VPR-pNA
[13] = target: recombinant human KLK5 (human) (UniProt Q9Y337); test: Kiapp as the y-intercept of the line of IC50 (nM) versus KLK5 (nM), Z-VPR-pNA
[14] = target: recombinant human KLK5 (human) (UniProt Q9Y337); test: pro-KLK1 coupled assay, 0.5 nM KLK5
[15] = target: recombinant human KLK5 (human) (UniProt Q9Y337); test: direct activity assay, 5 nM KLK5, Boc-VPR-AMC
[16] = target: recombinant human KLK5 (human) (UniProt Q9Y337); test: pro-KLK7 coupled assay, 5 nM KLK5, 125 nM pro-KLK7, suc-LLVY-AMC
[17] = target: recombinant human KLK5 (human) (UniProt Q9Y337); test: Kiapp assay curve, 0.500 nM KLK5, Z-VPR-pNA
[18] = target: recombinant human KLK5 (human) (UniProt Q9Y337); test: Kiapp assay curve, 0.125 nM KLK5, Z-VPR-pNA
[19] = target: recombinant human KLK5 (human) (UniProt Q9Y337); test: Kiapp assay curve, 0.063 nM KLK5, Z-VPR-pNA
[20] = target: recombinant human KLK5 (human) (UniProt Q9Y337); test: Kiapp assay curve, 0.250 nM KLK5, Z-VPR-pNA

recombinant human KLK5 (human), sequence (Q9Y337 67-293): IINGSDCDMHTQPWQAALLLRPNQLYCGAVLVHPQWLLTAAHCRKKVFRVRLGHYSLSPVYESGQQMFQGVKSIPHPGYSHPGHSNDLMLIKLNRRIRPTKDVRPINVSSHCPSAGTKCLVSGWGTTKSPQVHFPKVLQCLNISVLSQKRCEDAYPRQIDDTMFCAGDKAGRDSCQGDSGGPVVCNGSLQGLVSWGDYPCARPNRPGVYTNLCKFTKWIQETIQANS

| Binder | Kd [1] | koff [1] | kon [1] | IC50 (read off the curve) [2] | IC50 [3] | IC50 (read off the curve) [4] | IC50 [5] | IC50 [6] | IC50 [7] | IC50 [8] | koff [9] | IC50 [10] | IC50 [11] | Ki [12] | Ki [13] | IC50 [14] | IC50 [15] | IC50 (read off the curve) [16] | also measured |
| --- | --- | --- | --- | --- | --- | --- | --- | --- | --- | --- | --- | --- | --- | --- | --- | --- | --- | --- | --- |
| B1 | 0.694 nM | 0.000562 s⁻¹ | 810000 M⁻¹ s⁻¹ |  |  |  |  |  |  |  |  |  |  |  |  |  |  |  |  |
| B2 |  |  |  | 0.1 to 0.2 nM | 0.76 nM | 1 nM | 1.31 nM | 1.31 nM | 0.16 nM | 0.241 nM | 0.000316 s⁻¹ | 0.069 nM | 0.16 nM | 1.91 nM | 1.85 nM | 0.149 nM | 1.15 nM | 0.8 nM |  |
| B3 | 0.0165 nM | 0.000292 s⁻¹ | 1.78e+07 M⁻¹ s⁻¹ | 0.1 nM | 0.58 nM | 1 nM | 0.31 nM | 0.311 nM | 0.08 nM | 0.0795 nM | 0.000126 s⁻¹ | 0.0399 nM | 0.123 nM | 0.15 nM | 0.0412 nM | 0.111 nM | 0.98 nM |  |  |
| B4 | 0.00414 nM | 0.000201 s⁻¹ | 4.84e+07 M⁻¹ s⁻¹ |  |  |  |  |  |  |  |  |  |  |  |  |  |  |  |  |
| B5 | 0.00914 nM | 0.000235 s⁻¹ | 2.57e+07 M⁻¹ s⁻¹ |  |  |  |  |  |  |  |  |  |  |  |  |  |  |  |  |
| B6 | 0.057 nM | 0.00108 s⁻¹ | 1.9e+07 M⁻¹ s⁻¹ |  |  |  |  |  |  |  |  |  |  |  |  |  |  |  |  |
| B7 |  |  |  | 0.1 nM | 1.05 nM | 0.9 nM | 1.05 nM | 1.05 nM | 0.09 nM | 0.104 nM | 0.000143 s⁻¹ | 0.0728 nM | 0.0802 nM | 0.07 nM | 0.0697 nM | 0.12 nM | 1.08 nM | 1 nM | IC50 (read off the curve) [17]: 0.2 nM; IC50 (read off the curve) [18]: 0.07 nM; IC50 (read off the curve) [19]: 0.05 nM; IC50 (read off the curve) [20]: 0.1 nM |
| B8 |  |  |  |  | 0.95 nM | 1 to 2 nM | 1.42 nM | 1.42 nM | 0.12 nM | 0.0879 nM | 0.000178 s⁻¹ | 0.0659 nM | 0.202 nM | 0.185 nM | 0.165 nM | 0.074 nM | 1.17 nM | 1 nM | IC50 (read off the curve) [17]: 0.2 nM; IC50 (read off the curve) [18]: 0.1 nM; IC50 (read off the curve) [19]: 0.1 nM; IC50 (read off the curve) [20]: 0.1 nM |
| B9 |  |  |  | 0.2 nM | 0.86 nM | 1 to 2 nM | 1.72 nM | 1.72 nM | 0.48 nM |  | 0.000574 s⁻¹ | 0.369 nM | 0.584 nM | 6.35 nM | 6.36 nM | 0.17 nM | 1.29 nM |  |  |
| B10 |  |  |  | 0.1 nM | 1.1 nM | 1 nM | 0.38 nM | 0.384 nM | 0.09 nM | 0.0279 nM | 0.000184 s⁻¹ | 0.054 nM | 0.173 nM | 1.14 nM | 0.939 nM | 0.129 nM | 1.02 nM | 1 nM |  |
| B11 |  |  |  |  |  |  |  |  |  |  | 0.000245 s⁻¹ |  |  |  |  |  |  |  |  |
